Data reported in patent US20030096288A1 (Human Genome Sciences, published 2003).

Target: T1, RAIDD (construct or tag not stated for the experiment) (human, UniProt P78560 1-199)
T1 construct: a tag may have been present; also called RAIDD expression construct
Assay: in vitro binding to GST fusion protein on glutathione beads
Protocol: In Vitro Binding Assay. […] The tagged proteins were expressed, purified, and immobilized into Ni²⁺ beads according to standard methodology. The GST-Fas and TNFR-1 fusion proteins were prepared as described previously (Chinnaiyan, A. M. et al., Cell 81:505-12 (1995)). ³⁵S-labeled proteins were obtained by in vitro transcription/translation using the TNT T7-coupled reticulocyte lysate system (Promega).
Beads were washed, boiled in SDS sample buffer, eluted proteins resolved by SDS-PAGE and visualized following autoradiography.

T1 sequence (P78560 whole entry): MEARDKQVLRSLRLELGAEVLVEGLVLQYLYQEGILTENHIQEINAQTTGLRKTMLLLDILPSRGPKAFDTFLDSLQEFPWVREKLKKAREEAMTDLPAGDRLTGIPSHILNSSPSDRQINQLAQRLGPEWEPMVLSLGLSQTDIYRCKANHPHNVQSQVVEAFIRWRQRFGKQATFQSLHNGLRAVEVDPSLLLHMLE

binding result: no binding
B1: GST-Fas fusion protein (receptor, UniProt P25445 191-335, looked up)
chain: KRKEVQKTCRKHRKENQGSHESPTLNPETVAINLSDVDLSKYITTIAGVMTLSQVKGFVRKNGVNEAKIDEIKNDNVQDTAEQKVQLLRNWHQLHGKKEAYDTLIKDLKKANLCTLAEKIQTIILKDITSDSENSNFRNEIQSLV
notes: not shown: GST
